The assay deals with yAsf1 mutant V94R labeled with Alexa Fluor 532 (S. cerevisiae). Nature of the assay: other fluorescence titration.

What is called Kd is the equilibrium constant for the complex coming apart. Lower therefore signals higher affinity. “X. laevis H3^C110A / H4^T71C labeled with the Qsy9 fluorescence quencher (complex)” came in with a Kd of 290 nM.

These data come from article PMC3141235.
